Test [1] addresses T1, recombinant human LAG-3-ECD-human IgG1 fusion protein (human, UniProt P18627 23-450, biotin-labeled in the MHC class II blocking assays).
T1 construct: extracellular domain; also called LAG-3-huFc; LAG-3-ECD-huFc; not shown: human IgG1 Fc
T1 sequence (looked up): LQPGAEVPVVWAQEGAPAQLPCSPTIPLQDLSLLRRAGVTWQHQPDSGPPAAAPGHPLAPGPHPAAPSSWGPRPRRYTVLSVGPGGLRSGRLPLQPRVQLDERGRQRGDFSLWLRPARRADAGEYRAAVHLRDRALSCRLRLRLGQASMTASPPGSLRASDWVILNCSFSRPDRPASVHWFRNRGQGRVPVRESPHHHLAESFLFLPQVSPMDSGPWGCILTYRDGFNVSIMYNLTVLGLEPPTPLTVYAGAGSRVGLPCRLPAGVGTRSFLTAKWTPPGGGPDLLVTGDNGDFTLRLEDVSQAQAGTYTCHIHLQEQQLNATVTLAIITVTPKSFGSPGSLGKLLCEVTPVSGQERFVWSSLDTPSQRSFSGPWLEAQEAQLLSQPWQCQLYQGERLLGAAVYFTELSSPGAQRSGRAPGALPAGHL
Kind of test: flow cytometry; blocking of biotin-LAG-3-ECD-huFc binding to MHC class II on Raji cells. As for the experimental part: To evaluate the ability of anti-LAG-3 antibodies to block the binding of sLAG-3 to MHC class II receptor, an in vitro binding assay was designed using biotin-labeled LAG-3-ECD-huFc fusion proteins and Raji cells expressing MHC class II receptor. Antibodies from Example 1 were serially diluted from 20 μg/mL with FACS buffer and pre-incubated with 6 μg/mL of biotin-LAG-3-ECD-huFcc for 30 min at room temperature. The antibody mixture was then added to FcR blocked Raji cells and incubated for 30 min on ice. Cells were then washed with FACS buffer and subsequently stained with streptavidin PE for 30 min on ice and subsequently washed once with FACS buffer. Labeled cells were evaluated for fluorescence intensity by flow cytometry in a BD FACSCalibur™.
For orientation: In flow cytometry, cells or beads pass a laser one at a time.

In test [2] the target is T1, recombinant human LAG-3-ECD-human IgG1 …. Kind of test: ELISA on coated human LAG3 ECD-Fc; EC50 table has no unit, x axis Ab(nM). As for the experimental part:
(§1) To evaluate the capability of the anti-LAG-3 antibodies to bind to human, rat, and mouse LAG3 the antibodies identified in Example 2.1 were evaluated for their binding property through ELISA. The human, rat and mouse LAG3 ECD-Fc protein were coated to ELISA plate at 1 μg/ml with 100 μl/well. Antibodies from Example 1 were serially diluted with ELISA diluent buffer. […] The resulting plates were washed and then labeled with anti-human IgG(Fab)-HRP antibody. The S31 can only bind to human LAG3. The S27 and T99 can bind to human LAG3 and rat/mouse LAG3 with lower potency. The S119 antibody can bind to human, rat and mouse LAG3 at high potency (FIGS. 22A-22D).
For orientation: An ELISA detects its analyte on a solid surface through an enzyme-linked reagent.

Test [3] concerns the target T2, recombinant his-tag human LAG3-ECD protein (human, UniProt P18627 23-450).
T2 construct: extracellular domain; not shown: his tag
T2 sequence (looked up): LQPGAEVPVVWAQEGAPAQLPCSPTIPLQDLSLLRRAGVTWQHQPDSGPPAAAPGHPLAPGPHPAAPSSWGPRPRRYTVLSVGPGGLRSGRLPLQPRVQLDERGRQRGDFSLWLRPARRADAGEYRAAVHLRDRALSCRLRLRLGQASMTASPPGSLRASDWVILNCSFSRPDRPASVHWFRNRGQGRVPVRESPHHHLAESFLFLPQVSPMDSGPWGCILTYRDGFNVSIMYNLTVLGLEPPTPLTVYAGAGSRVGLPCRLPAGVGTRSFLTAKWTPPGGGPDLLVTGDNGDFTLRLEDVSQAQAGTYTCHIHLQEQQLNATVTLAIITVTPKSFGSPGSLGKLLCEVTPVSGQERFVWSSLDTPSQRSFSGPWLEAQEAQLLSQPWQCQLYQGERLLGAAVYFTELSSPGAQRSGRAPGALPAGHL
Kind of test: SPR Biacore T200, antibody captured by anti-human Fc, LAG3-ECD-his injected. Here is the method: The binding of the S20, S24, S27, S31, S87, S119, S120, S128, S136, S161 and T99 antibodies to recombinant his-tag human LAG3-ECD protein was examined by Biacore T200 using a capture method. Anti-LAG3 antibodies were captured using anti-human Fc antibody. The anti-human Fc antibody was coated on chip. Serial concentrations of his-tag human LAG3-ECD protein (0-4 nM) were injected over capture antibodies at the flow rate of 30 μl/min. The dissociation phase was 900 s or 550 s. The Biacore results for the anti-LAG3 antibodies have shown that these anti-LAG3 antibodies are high affinity binder to human LAG3.
On the technique in general: Surface plasmon resonance follows binding to a sensor surface in real time, without labels.

The target in another test is T3, rat LAG3 ECD-Fc protein (rat, UniProt Q5BK54 24-442).
T3 construct: extracellular domain; not shown: Fc part
T3 sequence (looked up): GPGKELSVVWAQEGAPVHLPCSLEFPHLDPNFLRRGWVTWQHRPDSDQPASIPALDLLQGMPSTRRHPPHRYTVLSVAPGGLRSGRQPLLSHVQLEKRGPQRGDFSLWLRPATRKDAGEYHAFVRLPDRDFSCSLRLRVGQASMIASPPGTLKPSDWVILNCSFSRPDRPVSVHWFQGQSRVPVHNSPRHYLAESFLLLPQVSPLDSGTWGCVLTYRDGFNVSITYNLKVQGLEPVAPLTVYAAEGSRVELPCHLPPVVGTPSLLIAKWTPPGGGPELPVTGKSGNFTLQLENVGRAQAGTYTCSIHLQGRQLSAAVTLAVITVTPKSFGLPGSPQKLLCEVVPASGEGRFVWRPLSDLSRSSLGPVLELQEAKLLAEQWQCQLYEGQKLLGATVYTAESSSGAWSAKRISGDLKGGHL
Kind of test: ELISA on coated rat LAG3 ECD-Fc; EC50 table has no unit, x axis Ab(nM); curve without upper plateau. Here is the method: as §1

For test [4], the target named is T4, mouse LAG3 ECD-Fc protein (mouse, UniProt Q61790 24-442).
T4 construct: extracellular domain; not shown: Fc part
T4 sequence (looked up): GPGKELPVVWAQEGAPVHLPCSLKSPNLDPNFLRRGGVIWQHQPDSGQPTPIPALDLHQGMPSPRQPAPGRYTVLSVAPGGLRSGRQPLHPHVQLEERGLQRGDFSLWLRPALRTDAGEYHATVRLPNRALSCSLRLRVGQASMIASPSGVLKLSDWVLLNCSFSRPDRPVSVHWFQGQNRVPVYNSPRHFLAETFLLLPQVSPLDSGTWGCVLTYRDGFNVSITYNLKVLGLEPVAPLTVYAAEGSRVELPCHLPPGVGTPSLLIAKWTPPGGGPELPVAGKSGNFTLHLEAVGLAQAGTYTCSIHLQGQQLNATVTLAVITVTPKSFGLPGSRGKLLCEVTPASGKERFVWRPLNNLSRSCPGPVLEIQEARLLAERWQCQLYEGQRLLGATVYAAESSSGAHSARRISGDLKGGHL
Kind of test: ELISA on coated mouse LAG3 ECD-Fc; EC50 table has no unit, x axis Ab(nM); curve without upper plateau. Here is the method: as §1

For test [5], the target named is T5, human LAG3 on cells (human, UniProt P18627 23-525).
T5 construct: whole, on cells; also called Jurkat-LAG3
T5 sequence (looked up): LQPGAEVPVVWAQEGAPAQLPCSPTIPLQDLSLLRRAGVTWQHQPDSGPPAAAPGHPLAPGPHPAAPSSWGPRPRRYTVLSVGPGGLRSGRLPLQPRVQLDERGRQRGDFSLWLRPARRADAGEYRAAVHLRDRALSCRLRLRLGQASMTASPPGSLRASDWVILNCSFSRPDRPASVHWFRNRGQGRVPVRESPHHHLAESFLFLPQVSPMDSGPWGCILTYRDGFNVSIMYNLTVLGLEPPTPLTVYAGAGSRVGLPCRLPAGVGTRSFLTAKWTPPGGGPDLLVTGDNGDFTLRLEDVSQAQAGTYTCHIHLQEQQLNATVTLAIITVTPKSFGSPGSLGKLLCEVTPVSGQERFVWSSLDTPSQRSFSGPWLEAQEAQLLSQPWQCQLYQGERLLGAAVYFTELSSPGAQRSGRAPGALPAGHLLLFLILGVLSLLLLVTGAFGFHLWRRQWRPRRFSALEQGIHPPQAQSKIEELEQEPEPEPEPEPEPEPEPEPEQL
In words: flow cytometry (MFI) on activated human PBMC (CD4+ cells), lower panel. As for the experimental part: (§2) To further confirm that B3807 could bind to cell-derived human LAG3, both inducible human LAG3 expressed Jurkat cells and activated PBMCs were used to test the binding capability of B3807. In brief, Jurkat cells were resuspended in FACS buffer. B3807, 25F7 and isotype control were 3-fold serially diluted in FACS buffer with a dose ranging from 20 nM to 9 pM. The serially diluted antibodies were added to the cell suspension and incubated for 30 minutes on ice. Then after removal of unbound antibodies, cells were stained with anti-human IgG conjugated with Alexa Fluor 633 (Thermo, A21091). Fluorescence measurement was acquired on FACSCelesta flow cytometer and analyzed in Flowjo to determine the mean fluorescence intensities (MFI). To test the antibodies' ability of binding to native human LAG3, PBMCs from health donor were stimulated with anti-CD3 (BD, 555336) and anti-CD28 (BD, 555725) both at a concentration of 1 μg/ml. Following 3 days' stimulation, cells were harvested and incubated with anti-LAG3 antibodies for 30 mins on ice. The cells were stained with anti-human CD4 and anti-human IgG. Analysis of antibodies binding to CD4+ cells were carried out on FACSCelesta flow cytometry.

In test [6] the target is T5, human LAG3 on cells. Kind of test: flow cytometry (MFI) on human LAG3-expressing Jurkat cells, upper panel. As for the experimental part:
as §2

A further test concerns the target T6, Bio-LAG3 (human, UniProt P18627 23-450, limits assumed, biotinylated (sites not given)).
T6 construct: also called human LAG3 protein
T6 sequence (looked up): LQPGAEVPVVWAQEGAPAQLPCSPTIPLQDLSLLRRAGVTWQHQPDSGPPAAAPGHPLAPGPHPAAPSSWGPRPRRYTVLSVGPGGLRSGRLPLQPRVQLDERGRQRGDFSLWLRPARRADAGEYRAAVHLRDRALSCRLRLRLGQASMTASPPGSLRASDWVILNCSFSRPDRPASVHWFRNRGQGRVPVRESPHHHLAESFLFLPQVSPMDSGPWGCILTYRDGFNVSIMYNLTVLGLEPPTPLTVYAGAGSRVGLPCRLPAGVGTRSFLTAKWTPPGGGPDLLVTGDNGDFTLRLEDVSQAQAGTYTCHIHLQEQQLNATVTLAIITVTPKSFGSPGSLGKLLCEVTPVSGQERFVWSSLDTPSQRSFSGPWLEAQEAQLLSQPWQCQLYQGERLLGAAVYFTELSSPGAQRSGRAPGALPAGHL
In words: ELISA, Bio-LAG3 held on streptavidin-coated plate. As for the experimental part: The streptavidin was coated to an ELISA plate at 2 μg/ml with 100 μl/well. 100 μl of Bio-LAG3 at 1.0 μg/ml was subsequently incubated with streptavidin at RT for 1 hr. B3807, along with a positive control 25F7 and a negative control IgG, were serially diluted with ELISA diluent buffer. To assess binding, the antibodies at various concentrations were added to LAG3 protein-coated plate for 1.5 hr RT. The resulting plates were washed and then labeled with anti-human IgG(Fab)-HRP antibody.

B1: NLAG3-HDB169-T99 (antibody, human IgG1, V domains shown)
VH: QVQLVQSGAEVKKPGSSVKVSCKASGGTFSSYAISWVRQAPGQGLEWMGGIIPIFGTANYAQKFQGRVTITADESTSTAYMELSSLRSEDTAVYYCVRDLQDWNYGGAAYWGQGTLVTVSS
VL: VIWMTQSPSSLSASVGDSVTITCQASRDISNSLSWHQQKPGKAPKLLIYAASSLQSGVPSRFSGSGSGTDFTLTISSLQPEDFATYYCQQTKSFPLTFGGGTKVEIKR
notes: Short label tied by its unique suffix
B1: in test [1], the IC50 turned out to be 23.7 nM. Further, the EC50 in test [2] turned out to be 0.0638 nM. In test [3], the Kd amounted to 0.0224 nM, the koff was determined as 0.00017 s⁻¹ and the kon was determined as 7.62e+06 M⁻¹ s⁻¹. The molecule further came in with an EC50 in the test with rat LAG3 ECD-Fc protein of 20.9 nM. In test [4], this molecule returned an EC50 of 16.9 nM.

B2: NLAG3-HDB169-S27 (antibody, human IgG1, V domains shown)
VH: QVQLVQSGAEVKKPGSSVKVSCKASGGTFSSYAISWVRQAPGQGLEWMGGIIPIFGTANYAQKFQGRVTITADESTSTAYMELSSLRSEDTAVYYCTTAAPGSYYLVFHYWGQGTLVTVSS
VL: DIQLTQSPSSLSASVGDRVTITCRASQTISSHLNWYQQKPGKAPKVLIYAASSLQSGVPSRFSGSGSGTEFTLTISSLQPDDFATYYCQQGNSFPFTFGPGTKVEIKR
notes: as for B1
For the molecule B2, the IC50 in test [1] was 29.8 nM. The EC50 in test [2] is 0.21 nM. In test [3], the Kd was 0.0156 nM, the koff turned out to be 0.00011 s⁻¹ and the kon is 7.04e+06 M⁻¹ s⁻¹. In the test with rat LAG3 ECD-Fc protein, this molecule returned an EC50 of 13.9 nM. A half-maximal response in test [4] (EC50) required 12.6 nM.

B3: 25F7 (antibody, V domains shown)
VH: QVQLQQWGAGLLKPSETLSLTCAVYGGSFSDYYWNWIRQPPGKGLEWIGEINHNGNTNSNPSLKSRVTLSLDTSKNQFSLKLRSVTAADTAVYYCAFGYSDYEYNWFDPWGQGTLVTVSS
VL: EIVLTQSPATLSLSPGERATLSCRASQSISSYLAWYQQKPGQAPRLLIYDASNRATGIPARFSGSGSGTDFTLTISSLEPEDFAVYYCQQRSNWPLTFGQGTNLEIK
Regarding B3, the EC50 with human LAG3 on cells [5] was 0.52 nM; with human LAG3 on cells [6], 0.57 nM; with Bio-LAG3, 0.22 nM.

In general, IC50 refers to the concentration that inhibits the measured activity by half. One may read the EC50 as the midpoint of the concentration-response curve. A word on the Kd: it is the concentration at which binding is half-saturated. The koff is the rate constant with which the complex falls apart. Usually kon stands for the rate constant with which the complex forms.

For the origin of these results see patent US20220363763A1 (ABL BIO, published 2022).
